Biological target: Recombinant Human Integrin α4β1 Protein, CF (human, UniProt P13612 35-977; P05556 21-728)
Test: surface enhanced Raman spectroscopy

Recombinant Human Integrin α4β1 Protein, CF, sequence (P13612 35-977, chain 1 of 2): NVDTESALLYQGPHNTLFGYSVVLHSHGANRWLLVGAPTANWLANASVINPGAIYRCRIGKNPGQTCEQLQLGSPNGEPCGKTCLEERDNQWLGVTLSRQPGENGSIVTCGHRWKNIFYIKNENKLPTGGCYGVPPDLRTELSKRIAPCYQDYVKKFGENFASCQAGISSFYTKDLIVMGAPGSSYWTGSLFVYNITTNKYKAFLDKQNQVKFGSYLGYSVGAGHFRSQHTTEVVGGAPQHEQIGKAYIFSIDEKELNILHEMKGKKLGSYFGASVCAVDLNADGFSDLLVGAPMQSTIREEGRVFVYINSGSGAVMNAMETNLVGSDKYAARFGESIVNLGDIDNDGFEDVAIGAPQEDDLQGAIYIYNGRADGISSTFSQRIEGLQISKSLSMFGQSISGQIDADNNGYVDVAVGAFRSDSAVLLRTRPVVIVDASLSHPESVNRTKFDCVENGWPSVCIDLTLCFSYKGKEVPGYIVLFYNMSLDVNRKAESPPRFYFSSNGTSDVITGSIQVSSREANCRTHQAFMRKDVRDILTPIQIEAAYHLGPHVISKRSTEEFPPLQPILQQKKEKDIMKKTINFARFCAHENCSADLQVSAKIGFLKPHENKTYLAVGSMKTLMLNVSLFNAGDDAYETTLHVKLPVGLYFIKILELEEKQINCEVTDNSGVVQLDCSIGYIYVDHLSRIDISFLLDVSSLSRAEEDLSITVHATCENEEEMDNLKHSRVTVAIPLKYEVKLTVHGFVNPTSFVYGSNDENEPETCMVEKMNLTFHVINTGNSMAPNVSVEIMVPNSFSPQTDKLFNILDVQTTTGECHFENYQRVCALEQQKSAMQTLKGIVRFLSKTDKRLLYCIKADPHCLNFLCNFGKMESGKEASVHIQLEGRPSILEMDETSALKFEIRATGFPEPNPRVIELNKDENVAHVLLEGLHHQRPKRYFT
Recombinant Human Integrin α4β1 Protein, CF, sequence (P05556 21-728, chain 2 of 2): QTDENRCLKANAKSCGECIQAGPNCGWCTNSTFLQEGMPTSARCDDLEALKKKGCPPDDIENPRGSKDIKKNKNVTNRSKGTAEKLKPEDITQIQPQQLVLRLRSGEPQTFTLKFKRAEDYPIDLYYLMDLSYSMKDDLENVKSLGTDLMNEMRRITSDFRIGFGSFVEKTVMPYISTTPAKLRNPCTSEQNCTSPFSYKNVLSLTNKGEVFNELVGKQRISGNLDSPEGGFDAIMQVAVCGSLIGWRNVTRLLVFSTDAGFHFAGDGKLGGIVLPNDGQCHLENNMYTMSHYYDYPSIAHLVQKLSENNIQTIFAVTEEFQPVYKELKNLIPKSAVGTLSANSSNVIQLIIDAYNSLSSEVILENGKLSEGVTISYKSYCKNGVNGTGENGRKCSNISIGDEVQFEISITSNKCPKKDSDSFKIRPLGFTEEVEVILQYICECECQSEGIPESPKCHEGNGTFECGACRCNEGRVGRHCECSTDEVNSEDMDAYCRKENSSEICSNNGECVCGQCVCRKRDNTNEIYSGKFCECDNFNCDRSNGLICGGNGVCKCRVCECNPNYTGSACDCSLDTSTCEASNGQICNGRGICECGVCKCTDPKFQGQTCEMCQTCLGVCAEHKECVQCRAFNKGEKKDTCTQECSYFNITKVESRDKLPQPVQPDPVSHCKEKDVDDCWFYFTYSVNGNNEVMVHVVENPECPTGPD

B1: Cys-Asp-Pro-Gly-Tyr-Ile-Gly-Ser-Arg (CDPGYIGSR) (peptide)
peptide: CDPGYIGSR
modifications: not fully specified; functionalized onto gold coated magnetic nanoparticles (thiol chemistry of the Cys)
  binding result: binds

Source: publication PMC10921760 (ACS sensors, 2023)
